Data published in paper PMC5858766, “Identification of aaNAT5b as a spermine N-acetyltransferase in the mosquito, Aedes aegypti” (PLoS ONE, 2018).

How the values were obtained:
Test in all cases: purified protein
Assay type in all cases: biochemical, Aedes aegypti
Conditions in all cases: 0.4 mM acetyl-CoA, 50 mM Tris-HCl, 1 mg/mL BSA, room temperature, 5 min; apparent Km
purified protein [1] = substrate: N=C(N)NCCCCN
purified protein [2] = substrate: NN
purified protein [3] = substrate: NCCc1c[nH]cn1
purified protein [4] = substrate: NCCCCN
purified protein [5] = substrate: NCCCCNCCCN
purified protein [6] = substrate: NCCCNCCCCNCCCN

B1: aaNAT5b/SAT (Aedes aegypti) (protein)
chain: MVAPESIVLRVARLDELEQVREILHRIYYPEEGITISYVHGKSHTLDDERFSLSFVEQGTVVVAEDSAAKKFIGVSIAGPIQPGDPDAMVEEAATTETKKWGDILKLLALLERTADVCGRYGLEKAYHVHILAVDPTYRGHSLGQRLLQFQMDLSKKLGFKAISGDFTSVFSVKLAEKLGMECISQLALGDYRDEKGEKLFEPLDVHQVIKTCVKLL
notes: about 25 kDa; monomer
For B1, the Km (purified protein [1]) was 0.21 ± 0.05 mM, the kcat (purified protein [1]) was 2.5 ± 0.183 s⁻¹ and the kcat/Km (purified protein [1]) was 11900 M⁻¹ s⁻¹. It also gave a Km (purified protein [2]) of 0.26 ± 0.03 mM, a kcat (purified protein [2]) of 0.637 ± 0.0283 s⁻¹ and a kcat/Km (purified protein [2]) of 2450 M⁻¹ s⁻¹. For the same protein, the Km (purified protein [3]) was 0.70 ± 0.13 mM, the kcat (purified protein [3]) was 0.277 ± 0.0217 s⁻¹ and the kcat/Km (purified protein [3]) was 400 M⁻¹ s⁻¹. For the same protein, the Km (purified protein [4]) was 0.52 ± 0.11 mM, the kcat (purified protein [4]) was 0.503 ± 0.0267 s⁻¹ and the kcat/Km (purified protein [4]) was 967 M⁻¹ s⁻¹. It also gave a Km (purified protein [5]) of 0.69 ± 0.12 mM, a kcat (purified protein [5]) of 0.26 ± 0.0233 s⁻¹ and a kcat/Km (purified protein [5]) of 383 M⁻¹ s⁻¹. The Km (purified protein [6]) was 0.17 ± 0.04 mM, the kcat (purified protein [6]) was 3.32 ± 0.2 s⁻¹ and the kcat/Km (purified protein [6]) was 19500 M⁻¹ s⁻¹.
